According to patent US20230002480A1:

What was measured:
Experiment in all cases: cell-based or functional assay
[1] = biological target: HIV-1 Env of pseudovirus 1006_11_C3_1601 (clade B (T/F)) (HIV-1)
[2] = biological target: HIV-1 Env of pseudovirus Du172.17 (clade C) (HIV-1)
[3] = biological target: HIV-1 Env of pseudovirus Q23.17 (clade A) (HIV-1)
[4] = biological target: HIV-1 Env of pseudovirus PVO.4 (clade B) (HIV-1)
[5] = biological target: HIV-1 Env of pseudovirus ZM233M.PB6 (clade C) (HIV-1)
[6] = biological target: HIV-1 Env of pseudovirus SC422661.8 (clade B) (HIV-1)
[7] = biological target: HIV-1 Env of pseudovirus CAAN5342.A2 (clade B) (HIV-1)
[8] = biological target: HIV-1 Env of pseudovirus HIV-001428-2.42 (clade C) (HIV-1)
[9] = biological target: HIV-1 Env of pseudovirus 6240_08_TA5_4622 (clade B (T/F)) (HIV-1)
[10] = biological target: HIV-1 Env of pseudovirus 1056_10_TA11_1826 (clade B (T/F)) (HIV-1)
[11] = biological target: HIV-1 Env of pseudovirus ZM214M.PL15 (clade C) (HIV-1)
[12] = biological target: HIV-1 Env of pseudovirus RHPA4259.7 (clade B) (HIV-1)
[13] = biological target: HIV-1 Env of pseudovirus 1054_07_TC4_1499 (clade B (T/F)) (HIV-1)
[14] = biological target: HIV-1 Env of pseudovirus 6244_13_B5_4576 (clade B (T/F)) (HIV-1)
[15] = biological target: HIV-1 Env pseudovirus C1080.c03 (HIV-1)
[16] = biological target: HIV-1 Env pseudovirus 3817.v2.c59 (HIV-1)
[17] = biological target: HIV-1 Env pseudovirus 6952.v1.c20 (HIV-1)
[18] = biological target: HIV-1 Env pseudovirus 6480.v4.c25 (HIV-1)
[19] = biological target: HIV-1 Env pseudovirus T257-31 (HIV-1)
[20] = biological target: HIV-1 Env pseudovirus 191084 B7-19 (HIV-1)
[21] = biological target: HIV-1 Env pseudovirus 9004SS_A3_4 (HIV-1)
[22] = biological target: HIV-1 Env pseudovirus BJOX015000.11.5 (HIV-1)
[23] = biological target: HIV-1 Env pseudovirus R1166.c01 (HIV-1)
[24] = biological target: HIV-1 Env pseudovirus X1632_S2_B10 (HIV-1)
[25] = biological target: HIV-1 Env pseudovirus 6811.v7.c18 (HIV-1)

N49P7.2 (antibody)
IC50 [1]: 0.085 µg/mL | IC80 [1]: 0.237 µg/mL | MPI [1]: 100 | IC50 [2]: 0.29 µg/mL | IC80 [2]: 1.08 µg/mL | MPI [2]: 100 | IC50 [3]: 0.051 µg/mL | IC80 [3]: 0.2 µg/mL | MPI [3]: 100 | IC50 [4]: 0.237 µg/mL | IC80 [4]: 0.831 µg/mL | MPI [4]: 100 | IC50 [5]: 0.475 µg/mL | IC80 [5]: 2.14 µg/mL | MPI [5]: 99 | IC50 [6]: 0.119 µg/mL | IC80 [6]: 0.564 µg/mL | MPI [6]: 100 | IC50 [7]: 0.809 µg/mL | IC80 [7]: 2.81 µg/mL | MPI [7]: 100 | IC50 [8]: 0.01 µg/mL | IC80 [8]: 0.036 µg/mL | MPI [8]: 100 | IC50 [9]: 0.812 µg/mL | IC80 [9]: 2.87 µg/mL | MPI [9]: 100 | IC50 [10]: 0.114 µg/mL | IC80 [10]: 0.771 µg/mL | MPI [10]: 100 | IC50 [11]: 0.559 µg/mL | IC80 [11]: 4.53 µg/mL | MPI [11]: 100 | IC50 [12]: 0.1 µg/mL | IC80 [12]: 0.289 µg/mL | MPI [12]: 100 | IC50 [13]: 2.04 µg/mL | IC80 [13]: 10.7 µg/mL | MPI [13]: 99 | IC50 [14]: 0.331 µg/mL | IC80 [14]: 1.04 µg/mL | MPI [14]: 100

N49P9 (antibody)
IC50 [15]: 0.119 µg/mL | IC80 [15]: 0.575 µg/mL | MPI [15]: 100 | IC50 [16]: 1.09 µg/mL | IC80 [16]: 5.86 µg/mL | MPI [16]: 100 | IC50 [17]: 0.095 µg/mL | IC80 [17]: 0.258 µg/mL | MPI [17]: 100 | IC50 [18]: 0.017 µg/mL | IC80 [18]: 0.047 µg/mL | MPI [18]: 100 | IC50 [19]: 0.216 µg/mL | IC80 [19]: 0.821 µg/mL | MPI [19]: 100 | IC50 [20]: 0.042 µg/mL | IC80 [20]: 0.129 µg/mL | MPI [20]: 100 | IC50 [21]: 0.175 µg/mL | IC80 [21]: 0.751 µg/mL | MPI [21]: 100 | IC50 [22]: 0.089 µg/mL | IC80 [22]: 0.375 µg/mL | MPI [22]: 100 | IC50 [23]: 0.064 µg/mL | IC80 [23]: 0.223 µg/mL | MPI [23]: 100 | IC50 [24]: 46.7 µg/mL | IC80 [24]: > 50 µg/mL | MPI [24]: 51 | IC50 [25]: 0.249 µg/mL | IC80 [25]: 1.2 µg/mL | MPI [25]: 99

N49P9.1 (antibody)
IC50 [15]: 0.156 µg/mL | IC80 [15]: 0.939 µg/mL | MPI [15]: 100 | IC50 [16]: 1.35 µg/mL | IC80 [16]: 8.26 µg/mL | MPI [16]: 95 | IC50 [17]: 0.119 µg/mL | IC80 [17]: 0.389 µg/mL | MPI [17]: 100 | IC50 [18]: 0.03 µg/mL | IC80 [18]: 0.082 µg/mL | MPI [18]: 100 | IC50 [19]: 0.508 µg/mL | IC80 [19]: 1.82 µg/mL | MPI [19]: 100 | IC50 [20]: 0.097 µg/mL | IC80 [20]: 0.259 µg/mL | MPI [20]: 100 | IC50 [21]: 0.323 µg/mL | IC80 [21]: 1.13 µg/mL | MPI [21]: 100 | IC50 [22]: 0.068 µg/mL | IC80 [22]: 0.478 µg/mL | MPI [22]: 100 | IC50 [23]: 0.073 µg/mL | IC80 [23]: 0.232 µg/mL | MPI [23]: 100 | IC50 [24]: > 50 µg/mL | IC80 [24]: > 50 µg/mL | MPI [24]: 10 | IC50 [25]: 0.398 µg/mL | IC80 [25]: 1.76 µg/mL | MPI [25]: 97

N49P11 (antibody)
IC50 [1]: 0.125 µg/mL | IC80 [1]: 0.487 µg/mL | MPI [1]: 100 | IC50 [2]: 5.65 µg/mL | IC80 [2]: 17.9 µg/mL | MPI [2]: 100 | IC50 [3]: 0.034 µg/mL | IC80 [3]: 0.254 µg/mL | MPI [3]: 100 | IC50 [4]: 0.248 µg/mL | IC80 [4]: 1.17 µg/mL | MPI [4]: 100 | IC50 [5]: 5.92 µg/mL | IC80 [5]: 18.5 µg/mL | MPI [5]: 100 | IC50 [6]: 0.729 µg/mL | IC80 [6]: 3.49 µg/mL | MPI [6]: 100 | IC50 [7]: 9.03 µg/mL | IC80 [7]: 20.8 µg/mL | MPI [7]: 100 | IC50 [8]: 0.221 µg/mL | IC80 [8]: 1.64 µg/mL | MPI [8]: 100 | IC50 [9]: 0.72 µg/mL | IC80 [9]: 3 µg/mL | MPI [9]: 100 | IC50 [10]: 4.77 µg/mL | IC80 [10]: 14.2 µg/mL | MPI [10]: 100 | IC50 [11]: 1.35 µg/mL | IC80 [11]: 8.98 µg/mL | MPI [11]: 100 | IC50 [12]: 0.202 µg/mL | IC80 [12]: 0.956 µg/mL | MPI [12]: 100 | IC50 [13]: 2.92 µg/mL | IC80 [13]: 13.1 µg/mL | MPI [13]: 100 | IC50 [14]: 1.12 µg/mL | IC80 [14]: 5.45 µg/mL | MPI [14]: 100

N49P18.1 (antibody)
IC50 [1]: 2.8 µg/mL | IC80 [1]: 9.66 µg/mL | MPI [1]: 99 | IC50 [2]: 6.52 µg/mL | IC80 [2]: 21.3 µg/mL | MPI [2]: 92 | IC50 [3]: 1.16 µg/mL | IC80 [3]: 6.93 µg/mL | MPI [3]: 100 | IC50 [4]: 9.65 µg/mL | IC80 [4]: 40.2 µg/mL | MPI [4]: 84 | IC50 [5]: 38.4 µg/mL | IC80 [5]: > 50 µg/mL | MPI [5]: 57 | IC50 [6]: 14.1 µg/mL | IC80 [6]: 43.4 µg/mL | MPI [6]: 84 | IC50 [7]: 16.1 µg/mL | IC80 [7]: 49.1 µg/mL | MPI [7]: 83 | IC50 [8]: 1.13 µg/mL | IC80 [8]: 8.31 µg/mL | MPI [8]: 100 | IC50 [9]: 35.2 µg/mL | IC80 [9]: > 50 µg/mL | MPI [9]: 60 | IC50 [10]: 30.5 µg/mL | IC80 [10]: > 50 µg/mL | MPI [10]: 62 | IC50 [11]: > 50 µg/mL | IC80 [11]: > 50 µg/mL | MPI [11]: 20 | IC50 [12]: 4.34 µg/mL | IC80 [12]: 21.4 µg/mL | MPI [12]: 98 | IC50 [13]: > 50 µg/mL | IC80 [13]: > 50 µg/mL | MPI [13]: 0 | IC50 [14]: 33.4 µg/mL | IC80 [14]: > 50 µg/mL | MPI [14]: 61
